Consider two substances from PMC10923007.

In assay [1] the target is ^GSTCAND1 from insect cells (UniProt Q86VP6). In words: pull-down.
For assay [2], the target named is ^GSTCAND1 from bacterial cells (UniProt Q86VP6). In words: pull-down.
The target of assay [3] is CUL2^AMCA•RBX1 preassembled with VBC (UniProt Q13617). In words: FRET or BRET.

Sequence of RBX1•^StrepIICUL2^FL (Q13617 whole entry): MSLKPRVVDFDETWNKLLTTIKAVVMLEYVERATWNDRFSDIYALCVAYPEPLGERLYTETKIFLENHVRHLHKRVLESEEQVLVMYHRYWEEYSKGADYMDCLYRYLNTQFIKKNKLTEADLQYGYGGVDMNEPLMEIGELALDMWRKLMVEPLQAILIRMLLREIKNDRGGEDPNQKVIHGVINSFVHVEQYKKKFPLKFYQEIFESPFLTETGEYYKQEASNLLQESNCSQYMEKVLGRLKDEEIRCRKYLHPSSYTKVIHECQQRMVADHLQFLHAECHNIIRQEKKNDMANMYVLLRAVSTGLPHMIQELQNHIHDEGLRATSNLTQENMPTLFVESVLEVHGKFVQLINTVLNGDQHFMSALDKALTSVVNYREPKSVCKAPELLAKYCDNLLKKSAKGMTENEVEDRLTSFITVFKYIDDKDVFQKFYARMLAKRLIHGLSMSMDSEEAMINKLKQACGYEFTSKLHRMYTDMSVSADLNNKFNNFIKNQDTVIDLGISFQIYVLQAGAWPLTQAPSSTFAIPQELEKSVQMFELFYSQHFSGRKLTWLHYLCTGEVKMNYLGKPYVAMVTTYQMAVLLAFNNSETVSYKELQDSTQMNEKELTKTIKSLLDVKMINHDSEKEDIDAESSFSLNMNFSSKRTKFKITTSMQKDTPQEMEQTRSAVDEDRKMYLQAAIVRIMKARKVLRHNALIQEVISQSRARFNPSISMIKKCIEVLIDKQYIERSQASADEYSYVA
Sequence of RBX1•^StrepIICUL2^FL (P62877 whole entry): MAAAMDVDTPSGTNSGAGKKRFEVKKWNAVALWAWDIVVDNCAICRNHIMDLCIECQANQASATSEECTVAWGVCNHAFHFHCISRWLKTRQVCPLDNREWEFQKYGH
Sequence of ^GSTCAND1 from insect cells (Q86VP6 whole entry): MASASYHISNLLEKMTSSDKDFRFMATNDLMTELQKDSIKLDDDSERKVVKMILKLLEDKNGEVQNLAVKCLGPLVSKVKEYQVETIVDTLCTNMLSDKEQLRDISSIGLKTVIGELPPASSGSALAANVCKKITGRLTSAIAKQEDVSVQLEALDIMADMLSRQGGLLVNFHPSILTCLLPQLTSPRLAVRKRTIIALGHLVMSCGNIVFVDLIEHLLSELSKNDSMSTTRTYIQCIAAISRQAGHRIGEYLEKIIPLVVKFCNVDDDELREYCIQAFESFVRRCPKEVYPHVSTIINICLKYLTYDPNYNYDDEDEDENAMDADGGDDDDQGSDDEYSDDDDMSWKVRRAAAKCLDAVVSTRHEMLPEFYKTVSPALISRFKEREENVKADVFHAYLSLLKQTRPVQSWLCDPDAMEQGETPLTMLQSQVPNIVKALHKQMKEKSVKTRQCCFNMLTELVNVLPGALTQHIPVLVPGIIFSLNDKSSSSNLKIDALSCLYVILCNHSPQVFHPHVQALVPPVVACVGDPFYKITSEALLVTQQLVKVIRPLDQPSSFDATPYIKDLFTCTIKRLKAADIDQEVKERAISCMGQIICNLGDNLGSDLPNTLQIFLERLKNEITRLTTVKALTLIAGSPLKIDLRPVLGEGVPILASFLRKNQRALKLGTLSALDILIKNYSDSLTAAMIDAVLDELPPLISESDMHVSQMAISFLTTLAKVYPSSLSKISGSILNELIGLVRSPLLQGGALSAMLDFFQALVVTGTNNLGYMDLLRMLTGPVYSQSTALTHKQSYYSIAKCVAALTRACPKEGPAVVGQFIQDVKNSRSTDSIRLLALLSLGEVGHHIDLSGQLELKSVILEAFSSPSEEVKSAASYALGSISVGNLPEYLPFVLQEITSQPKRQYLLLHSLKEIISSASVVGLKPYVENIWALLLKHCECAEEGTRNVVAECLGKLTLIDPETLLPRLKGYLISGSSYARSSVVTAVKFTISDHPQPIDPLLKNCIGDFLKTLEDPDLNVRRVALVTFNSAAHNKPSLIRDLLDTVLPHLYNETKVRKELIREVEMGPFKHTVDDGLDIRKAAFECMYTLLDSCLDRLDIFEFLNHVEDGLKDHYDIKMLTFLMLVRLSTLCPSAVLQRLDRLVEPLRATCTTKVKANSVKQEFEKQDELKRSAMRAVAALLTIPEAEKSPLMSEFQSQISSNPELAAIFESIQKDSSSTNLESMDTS
Sequence of ^FlAsHCAND1 from insect cells (Q86VP6 whole entry): as above
Sequence of ^GSTCAND1 from bacterial cells (Q86VP6 whole entry): as above

Turning to “RBX1•^StrepIICUL2^FL (from UniProt Q13617 1-745; P62877 1-108) (complex)”, the t1/2 of dissociation in assay [1] was 16 min; in assay [2], 3.5 min. For orientation: kon means the rate constant with which the complex forms. Low readings indicate slow association, high ones fast association. For “^FlAsHCAND1 from insect cells (from UniProt Q86VP6 1-1230) (natural protein)”, the kon in assay [3] stood at 9.8e+07 M⁻¹ s⁻¹.
